As usually defined, the Kd is the free concentration of one partner at which half of the binding sites on the other are occupied at equilibrium, for simple one-to-one binding. Read a low Kd as tighter binding.

The assay has as its target GST-LB3-coil2 (Xenopus). Briefly: biosensor binding studies.

For the substance “6His-tagged full-length Nudel (6His-Nudel, 1-345 aa) (natural protein)”, the Kd came out at 50 µM.
